Reference: patent US20230167182A1 (BIOSION, published 2023)
Where two headings read alike, the source gives them in different places.

T1: macaca IL6R-his protein (macaca mulatta)
T1 chain: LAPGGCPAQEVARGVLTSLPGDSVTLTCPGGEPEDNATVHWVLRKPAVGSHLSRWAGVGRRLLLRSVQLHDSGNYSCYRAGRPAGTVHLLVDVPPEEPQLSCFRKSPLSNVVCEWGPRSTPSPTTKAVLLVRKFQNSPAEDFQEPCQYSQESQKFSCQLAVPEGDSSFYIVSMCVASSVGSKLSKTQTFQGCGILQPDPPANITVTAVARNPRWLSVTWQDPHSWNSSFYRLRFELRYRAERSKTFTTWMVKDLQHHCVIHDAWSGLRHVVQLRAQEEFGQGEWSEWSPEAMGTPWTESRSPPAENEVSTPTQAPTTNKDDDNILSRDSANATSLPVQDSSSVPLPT

T2: human IL6R expressed on cell surface (human, UniProt P08887 20-468)
T2 construct: whole, on cells; also called cell surface human IL6R; U266 cells expressing human IL6R
T2 sequence (looked up): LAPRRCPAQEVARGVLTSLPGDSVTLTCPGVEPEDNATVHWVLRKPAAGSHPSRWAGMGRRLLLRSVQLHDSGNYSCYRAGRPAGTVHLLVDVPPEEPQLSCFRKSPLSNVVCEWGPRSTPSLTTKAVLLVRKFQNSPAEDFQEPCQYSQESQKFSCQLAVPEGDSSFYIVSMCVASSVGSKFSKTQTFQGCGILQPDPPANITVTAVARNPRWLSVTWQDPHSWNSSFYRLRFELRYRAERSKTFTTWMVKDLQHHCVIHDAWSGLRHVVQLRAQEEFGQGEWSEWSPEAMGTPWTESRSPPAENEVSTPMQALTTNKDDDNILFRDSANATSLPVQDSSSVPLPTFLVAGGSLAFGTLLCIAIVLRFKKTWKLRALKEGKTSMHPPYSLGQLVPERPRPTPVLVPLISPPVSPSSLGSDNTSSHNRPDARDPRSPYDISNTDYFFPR


Columns and labels:
[1] = target: T1, macaca IL6R-his protein; assay: indirect ELISA on plate-coated macaca IL6R-his
Procedure: The anti-IL6R antibodies were tested for their cross-reaction with macaca IL6R. Briefly, 96-well micro plates were coated with 2 μg/ml macaca IL6R-his protein (in house made, amino acid sequence set forth in SEQ ID NO:45) in carbonate/bicarbonate buffer (pH 9.6), 100 μl/well, for 2 hours at 37° C. ELISA plates were washed once with wash buffer (PBS+0.05% v/v Tween-20, PBST) and then blocked with 200 μl/well blocking buffer (5% w/v non-fatty milk in PBST) for 2 hours at 37° C. Plates were washed 4 times and incubated with 100 μl/well serially diluted anti-IL6R antibodies of the disclosure or controls, starting at 66.67 nM with 5-fold serial dilution in PBST with 2.5% w/v non-fat milk, and incubated at 37° C. for 40 minutes. ELISA plates were washed 4 times again and incubated with 100 μl/well Peroxidase AffiniPure Goat Anti-Mouse IgG, Fcγ Fragment Specific (1:5000 dilution in PBST buffer, Jackson ImmunoResearch Laboratories, Inc., Cat #115-035-071) for 40 minutes at 37° C. After the final wash, plates were incubated with 100 μl/well TMB (InnoReagents). The reaction was stopped 3-10 minutes later at room temperature with 50 μl/well 1M H₂SO₄, and the absorbance of each well was read on a microplate reader using dual wavelength mode with 450 nm for TMB and 630 nm as the reference wavelength. Then the OD (450-630) values were plotted against antibody concentration. Data was analyzed using Graphpad Prism software and EC₅₀ values were reported.

[2] = target: T2, human IL6R expressed on cell surface; assay: cell-based binding FACS on U266 cells
Procedure: (§1) The binding activities of the mouse anti-IL6R antibodies to IL6R expressed on cell surface were tested by flow cytometry (FACS). Briefly, human myeloma cells U266 (ATCC® TIB-196™) were harvested from cell culture flasks, washed twice and resuspended in phosphate buffered saline (PBS) containing 2% v/v Fetal Bovine Serum (FACS buffer). 2×10⁵ U266 cells per well were incubated in 96 well-plates with 100 μl of the anti-IL6R antibodies or controls at various concentrations (starting at 40 nM with a 3-fold serial dilution in FACS buffer) for 40 minutes on ice. Cells were washed twice with FACS buffer, and added with 100 μL/well R-Phycoerythrin AffiniPure F(ab′)₂ Fragment Goat Anti-Mouse IgG (H+L) (1:1000 dilution in FACS buffer, Jackson ImmunoResearch Laboratories, Inc., Cat #115-116-146). Following an incubation of 40 minutes at 4° C. in dark, cells were washed three times and resuspended in FACS buffer. Fluorescence was measured using a Becton Dickinson FACS Canto II-HTS equipment. Data was analyzed using Graphpad Prism software and EC₅₀ values were reported.

[3] = target: T2, human IL6R expressed on cell surface; assay: cell-based binding FACS on U266 cells; remark: listed apart in the source
Procedure: as §1
For the cell-based binding FACS, R-Phycoerythrin AffiniPure Goat Anti-human IgG Fcγ fragment specific (Jackson ImmunoResearch Laboratories, Inc., Cat #109-115-098) was used instead of R-Phycoerythrin AffiniPure F(ab′)₂ Fragment Goat Anti-Mouse IgG (H+L), 1:1000 dilution in FACS buffer, 100 μl/well.

[4] = target: T3, human IL6R-Fc protein (human, biotin-labeled in the ELISAs (sites not given)); assay: ligand blocking ELISA: antibody pre-incubated with biotin-labeled human IL6R-Fc, added to plate-coated human IL6 (blocked ligand: human IL6)
T3 construct: In house made; also called biotin-labeled human IL6R-Fc protein
Procedure: The next day, anti-IL6R antibodies or controls were diluted with biotin labeled human IL6R-Fc protein (prepared in house, SEQ ID NO: 43, 39.5 ng/ml in 2.5% w/v non-fatty milk in PBST), starting at 100 nM with a 4-fold serial dilution, and incubated at room temperature for 40 minutes. […] Plates were washed for 4 times using wash buffer, and added and incubated with 100 μl/well of streptavidin conjugated HRP (1:10000 dilution in PBST buffer, Jackson ImmunoResearch Laboratories, Inc., Cat #016-030-084) for 40 minutes at 37° C. Plates were washed again using wash buffer. Finally, TMB was added and the reaction was stopped using 1M H₂SO₄. The absorbance was read on a microplate reader using dual wavelength mode with 450 nm for TMB and 630 nm as the reference wavelength, and then the OD (450-630) values were plotted against antibody concentration. Data was analyzed using Graphpad Prism software and IC₅₀ values were reported.

EC50 [1] [nM] | EC50 [2] [nM] | EC50 [3] [nM] | IC50 [4] [nM] | Binder
0.0575 | 1.7 | 1.76 | 2.33 | Tocilizumab (antibody, human IgG1, kappa, V domains shown, In house made; also called benchmark; Actemra) VH: QVQLQESGPGLVRPSQTLSLTCTVSGYSITSDHAWSWVRQPPGRGLEWIGYISYSGITTYNPSLKSRVTMLRDTSKNQFSLRLSSVTAADTAVYYCARSLARTTAMDYWGQGSLVTVSS VL: DIQMTQSPSSLSASVGDRVTITCRASQDISSYLNWYQQKPGKAPKLLIYYTSRLHSGVPSRFSGSGSGTDFTFTISSLQPEDIATYYCQQGNTLPYTFGQGTKVEIKR
0.341 | – | – | – | mouse anti-IL6R monoclonal antibody 1H9 (antibody, V domains shown, Mouse hybridoma mAb) VH: QVQLQQPGAELVKPGASVKLSCKASGYTFTSYWMHWVKLRPGQGLEWIGEINPTNGRTNYYEKFKNRATLTADKSSSTAYMQLSSLTFEDSAVYFCAKFHYSRWYFDVWGTGTTVTVSS VL: DIVMTQSQKFMSTSVGDRVSITCKASQNVGTAVVWYQQKPGQSPKLLINPASNRYTGVPDRFTGSGSGTDFTLTISNMQSEDLADYFCQQYSSYPLTFGAGTKLELK
– | – | 0.417 | – | humanized antibody hu1H7-V5 (antibody, human IgG1, kappa, V domains shown, Human IgG1 / kappa) VH: QVQLVQSGAEVKKPGASVKVSCKASGYTFTNYWMHWVRQAPGQGLEWIGEINPTNGRTNYNENFKSRVTLTVDTSTSTVYMELSSLRSEDTAVYYCARLNTHYVFDSWGQGTLVTVSS VL: EIVLTQSPGTLSLSPGERATLSCSVSSSISSNYLHWYQQKPGLSPRLLISRTSTLASGIPARFSGSGSGTEYTLTISRMQSEDFAVYYCQQGSGIPFTFGQGTKLEIKR
– | – | 0.301 | – | mouse anti-IL6R monoclonal antibody 1H7 (antibody, V domains shown, Mouse hybridoma mAb) VH: QVQLQQPGTELVKPGASVKLSCKASGYTFTNYWMHWVKQRPGQGLDWIGEINPTNGRTNYNENFKSKATLTVDKSSSTAYMQLSSLTSEDSAVYYCARLNTHYVFDSWGQGTTLTLSS VL: EIVLTQSPTTLAASPGEKITFTCSVSSSISSNYLHWYQQKPGFSPKLLISRTSTLASGVPARFSGSGSGTSYSLTIGTMEAEDVATYYCQQGSGIPFTFGSGTKLELK
– | 0.229 | – | 0.807 | mouse anti-IL6R monoclonal antibody 1A3 (antibody, V domains shown, Mouse hybridoma mAb purified on Protein A) VH: QVQLQQPGAELVKPGASVKLSCKASGYTFTSYWMHWVKQRPAQGLEWIGEINPSNGRTNFNEKFKTKATLTVDKSSNTAYMQLSSLTSEDSAVYSCLRLNTHYVFDYWGQGTTLTVSS VL: EIVLTQSPTTMAASPGEKITITCSASSSISSNYLHWYQQKPGFSPKLLISRTSNLASGVPTRFSGSGSGTSYSLTIGTMEAGDVATYYCQQGSGIPFTFGSGTKLEIK
– | 0.204 | – | 0.697 | mouse anti-IL6R monoclonal antibody 1B5 (antibody, V domains shown, Mouse hybridoma mAb) VH: QVQLQQPGAELVKPGASVKLSCKASGYTFTSYWMHWVKQRPGQGLEWIGEINPSNGRTNYNENFKSKATLTVDKSSSTAYMQLSSLTSEDSAVYYCARLNTHYVFDYWGQGTTLTVSS VL: EIVLTQSPTILAASPGEKITFTCSVSSSISSNYLHWYQQKPGFSPKLLIYRTSNLASGVPARFSGSGSGTSYSLTIGTMEAEDVATYYCQQGSGIPFTFGSGTKLEIK
– | – | 0.298 | – | Chimeric 1H7 (antibody, human IgG1, kappa, V domains shown, Mouse variable regions on human IgG1 / human kappa constant regions; also called chimeric antibody 1H7) VH: QVQLQQPGTELVKPGASVKLSCKASGYTFTNYWMHWVKQRPGQGLDWIGEINPTNGRTNYNENFKSKATLTVDKSSSTAYMQLSSLTSEDSAVYYCARLNTHYVFDSWGQGTTLTLSS VL: EIVLTQSPTTLAASPGEKITFTCSVSSSISSNYLHWYQQKPGFSPKLLISRTSTLASGVPARFSGSGSGTSYSLTIGTMEAEDVATYYCQQGSGIPFTFGSGTKLELKR
0.501 | – | – | – | mouse anti-IL6R monoclonal antibody 1G1 (antibody, V domains shown, Mouse hybridoma mAb) VH: QVQLQQPGAELVKPGASVKLSCKASGYTFTSYWMHWVKVRPGQGLEWIGEINPTNGRTNYNEDFKSKATLTVESSSSTAYMQFSSLTSEDSAVYYCARLNTHYVFDYWGQGTTLTVSS VL: EIVLTQSPTILAASPGEKITFTCSVSSSISSNYLHWYQQKPGFSPKLLIYRTSNLASGVPARFSGSGSGTSYSLTIGTMEAEDVATYYCQQGSGIPFTFGSGTKLEIK
